B1: Mothers against decapentaplegic homolog 4 (Homo sapiens), Q13485 (parent)
chain: MDNMSITNTPTSNDACLSIVHSLMCHRQGGESETFAKRAIESLVKKLKEKKDELDSLITAITTNGAHPSKCVTIQRTLDGRLQVAGRKGFPHVIYARLWRWPDLHKNELKHVKYCQYAFDLKCDSVCVNPYHYERVVSPGIDLSGLTLQSNAPSSMMVKDEYVHDFEGQPSLSTEGHSIQTIQHPPSNRASTETYSTPALLAPSESNATSTANFPNIPVASTSQPASILGGSHSEGLLQIASGPQPGQQQNGFTGQPATYHHNSTTTWTGSRTAPYTPNLPHHQNGHLQHHPPMPPHPGHYWPVHNELAFQPPISNHPAPEYWCSIAYFEMDVQVGETFKVPSSCPIVTVDGYVDPSGGDRFCLGQLSNVHRTEAIERARLHIGKGVQLECKGEGDVWVRCLSDHAVFVQSYYLDREAGRAPGDAVHKIYPSAYIKVFDLRQCHRQMQQQAATAQAAAAAQAAAVAGNIPGPGSVGGIAPAISLSAAAGIGVDDLRRLCILRMSFVKGWGPDYPRQSIKETPCWIEIHLHRALQLLDEVLHTMPIADPQPLD
partner: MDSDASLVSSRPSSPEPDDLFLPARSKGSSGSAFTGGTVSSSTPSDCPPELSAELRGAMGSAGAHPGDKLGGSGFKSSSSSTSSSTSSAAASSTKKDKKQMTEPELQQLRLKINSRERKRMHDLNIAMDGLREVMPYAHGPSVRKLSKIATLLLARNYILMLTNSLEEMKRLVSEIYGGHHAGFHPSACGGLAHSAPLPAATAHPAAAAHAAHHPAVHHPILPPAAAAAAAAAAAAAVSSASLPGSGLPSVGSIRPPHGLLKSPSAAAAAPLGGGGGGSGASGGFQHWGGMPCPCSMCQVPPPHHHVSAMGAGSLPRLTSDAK
B2: Mothers against decapentaplegic homolog 4 (Homo sapiens), Q13485 (parent)
chain: B1 chain
partner: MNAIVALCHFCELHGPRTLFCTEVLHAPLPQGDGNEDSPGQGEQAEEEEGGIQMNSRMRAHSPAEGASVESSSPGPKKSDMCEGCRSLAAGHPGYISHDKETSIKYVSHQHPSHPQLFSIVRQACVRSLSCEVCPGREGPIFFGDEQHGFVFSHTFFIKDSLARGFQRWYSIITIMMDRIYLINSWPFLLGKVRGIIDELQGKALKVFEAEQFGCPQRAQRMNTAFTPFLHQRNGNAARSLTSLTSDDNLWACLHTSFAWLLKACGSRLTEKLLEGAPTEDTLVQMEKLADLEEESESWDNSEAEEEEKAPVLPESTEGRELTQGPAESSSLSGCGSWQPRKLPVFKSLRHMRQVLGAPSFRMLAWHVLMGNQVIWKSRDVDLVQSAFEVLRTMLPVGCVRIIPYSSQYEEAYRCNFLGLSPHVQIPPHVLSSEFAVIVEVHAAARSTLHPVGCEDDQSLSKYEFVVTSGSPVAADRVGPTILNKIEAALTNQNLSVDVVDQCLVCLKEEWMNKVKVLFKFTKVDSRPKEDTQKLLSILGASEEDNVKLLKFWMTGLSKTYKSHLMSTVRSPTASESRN
B3: Mothers against decapentaplegic homolog 4 (Homo sapiens), Q13485 (parent)
chain: B1 chain
partner: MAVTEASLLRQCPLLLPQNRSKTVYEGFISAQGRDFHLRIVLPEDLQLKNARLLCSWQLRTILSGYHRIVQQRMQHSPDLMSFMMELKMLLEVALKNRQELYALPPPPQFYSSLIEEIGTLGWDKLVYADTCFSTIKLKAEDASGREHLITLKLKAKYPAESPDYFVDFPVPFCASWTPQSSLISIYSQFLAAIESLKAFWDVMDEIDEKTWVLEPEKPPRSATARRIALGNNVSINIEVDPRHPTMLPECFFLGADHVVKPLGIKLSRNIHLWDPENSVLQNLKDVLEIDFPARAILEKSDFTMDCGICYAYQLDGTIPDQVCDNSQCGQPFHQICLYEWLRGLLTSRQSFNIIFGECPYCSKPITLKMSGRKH
B4: Mothers against decapentaplegic homolog 4 (Homo sapiens), Q13485 (parent)
chain: B1 chain
partner: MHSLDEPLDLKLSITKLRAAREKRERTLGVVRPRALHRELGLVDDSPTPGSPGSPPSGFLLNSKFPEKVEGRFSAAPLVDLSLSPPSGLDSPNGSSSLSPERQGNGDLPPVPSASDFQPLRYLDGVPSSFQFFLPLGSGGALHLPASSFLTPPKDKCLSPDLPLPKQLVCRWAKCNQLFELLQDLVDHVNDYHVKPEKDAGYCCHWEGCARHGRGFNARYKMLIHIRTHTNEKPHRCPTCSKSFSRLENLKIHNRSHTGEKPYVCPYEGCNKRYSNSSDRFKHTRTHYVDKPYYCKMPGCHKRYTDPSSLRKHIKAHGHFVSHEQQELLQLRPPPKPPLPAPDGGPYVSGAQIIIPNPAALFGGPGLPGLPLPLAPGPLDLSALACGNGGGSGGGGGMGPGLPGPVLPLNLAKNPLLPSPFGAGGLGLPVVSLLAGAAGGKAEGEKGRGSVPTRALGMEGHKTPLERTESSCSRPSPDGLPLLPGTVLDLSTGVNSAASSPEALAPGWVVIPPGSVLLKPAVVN
B5: Mothers against decapentaplegic homolog 4 (Homo sapiens), Q13485 (parent)
chain: B1 chain
partner: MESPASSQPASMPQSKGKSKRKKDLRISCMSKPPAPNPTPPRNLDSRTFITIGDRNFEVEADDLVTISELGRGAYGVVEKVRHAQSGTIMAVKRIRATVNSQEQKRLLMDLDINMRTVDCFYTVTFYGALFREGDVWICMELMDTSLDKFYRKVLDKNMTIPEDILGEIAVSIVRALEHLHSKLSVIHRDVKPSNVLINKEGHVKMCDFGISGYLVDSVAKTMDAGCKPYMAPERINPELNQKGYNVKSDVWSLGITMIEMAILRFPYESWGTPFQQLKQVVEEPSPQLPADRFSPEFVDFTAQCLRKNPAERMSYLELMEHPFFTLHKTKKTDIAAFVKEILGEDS
B6: Mothers against decapentaplegic homolog 4 (Homo sapiens), Q13485 (parent)
chain: B1 chain
partner: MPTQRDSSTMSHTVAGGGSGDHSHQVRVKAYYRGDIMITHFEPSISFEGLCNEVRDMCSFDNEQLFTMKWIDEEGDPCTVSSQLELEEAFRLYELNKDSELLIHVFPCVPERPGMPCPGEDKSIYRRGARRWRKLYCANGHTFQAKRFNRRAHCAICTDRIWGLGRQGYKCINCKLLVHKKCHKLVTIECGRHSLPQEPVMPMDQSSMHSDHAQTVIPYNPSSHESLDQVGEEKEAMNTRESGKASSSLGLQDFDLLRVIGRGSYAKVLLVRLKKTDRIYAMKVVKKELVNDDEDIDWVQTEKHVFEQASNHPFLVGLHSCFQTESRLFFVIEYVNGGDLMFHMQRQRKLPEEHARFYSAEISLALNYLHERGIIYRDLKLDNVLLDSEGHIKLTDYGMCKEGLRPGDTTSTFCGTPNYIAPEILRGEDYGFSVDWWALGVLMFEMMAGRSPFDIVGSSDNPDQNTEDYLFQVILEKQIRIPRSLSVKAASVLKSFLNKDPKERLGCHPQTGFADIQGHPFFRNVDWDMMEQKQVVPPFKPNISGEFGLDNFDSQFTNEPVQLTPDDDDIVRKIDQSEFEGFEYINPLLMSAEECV
B7: Mothers against decapentaplegic homolog 4 (Homo sapiens), Q13485 (parent)
chain: B1 chain
partner: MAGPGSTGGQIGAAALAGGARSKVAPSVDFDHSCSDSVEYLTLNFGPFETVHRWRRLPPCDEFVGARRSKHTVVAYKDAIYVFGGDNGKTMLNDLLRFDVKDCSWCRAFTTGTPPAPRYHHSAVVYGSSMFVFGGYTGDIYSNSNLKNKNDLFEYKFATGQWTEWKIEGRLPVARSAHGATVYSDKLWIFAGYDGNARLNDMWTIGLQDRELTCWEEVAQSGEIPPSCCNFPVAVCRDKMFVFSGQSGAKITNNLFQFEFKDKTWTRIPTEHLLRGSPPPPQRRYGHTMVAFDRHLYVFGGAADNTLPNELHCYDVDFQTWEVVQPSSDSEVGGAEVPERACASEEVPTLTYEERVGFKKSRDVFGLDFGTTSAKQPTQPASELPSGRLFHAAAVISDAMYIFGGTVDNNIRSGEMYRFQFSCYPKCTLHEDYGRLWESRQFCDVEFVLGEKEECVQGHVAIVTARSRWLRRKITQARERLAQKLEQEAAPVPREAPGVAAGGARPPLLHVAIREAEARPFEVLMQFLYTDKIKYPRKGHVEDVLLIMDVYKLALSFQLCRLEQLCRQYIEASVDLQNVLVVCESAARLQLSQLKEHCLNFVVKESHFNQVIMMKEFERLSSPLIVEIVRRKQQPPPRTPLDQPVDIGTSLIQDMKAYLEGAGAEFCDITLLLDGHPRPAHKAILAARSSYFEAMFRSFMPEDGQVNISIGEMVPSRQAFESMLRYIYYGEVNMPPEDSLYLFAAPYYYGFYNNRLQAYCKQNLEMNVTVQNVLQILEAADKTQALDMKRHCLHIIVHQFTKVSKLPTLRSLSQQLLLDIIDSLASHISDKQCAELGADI

We go through 22 variants from IntAct's records for PubMed 35512704.

One test covers variants of B1. As to conditions: with olig2_human OLIG2, Q13516.
Consider R361H, for which the “effect of a mutation on the interaction” value was “with no effect”.

The variants in a further test derive from B2. As to conditions: with flcn_human FLCN.
With D351H, the “effect of a mutation on the interaction” value was “with no effect”.

In another test the parent is B2. As to conditions: with flcn_human FLCN. The source holds these as a separate data set.
For the variant R361H, the “effect of a mutation on the interaction” value is on record as “with no effect”.

The variants in the next test derive from B2. As to conditions: with flcn_human FLCN. The source holds these as a separate data set.
With R361C, the “effect of a mutation on the interaction” value is “with no effect”.

Variants of B2 are the subject of a further test. As to conditions: with flcn_human FLCN. This is another data set of the same source.
With G386D, the “effect of a mutation on the interaction” value is “with no effect”.

Variants of B3 are the subject of the next test. Conditions: with fancl_human FANCL.
Turning to G386D, the “effect of a mutation on the interaction” value is listed as “with no effect”.

In the next test the parent is B3. As to conditions: with fancl_human FANCL. This is another data set of the same source.
Turning to G386D, the “effect of a mutation on the interaction” value was “increasing interaction strength”.

A further test covers variants of B3. Conditions: with fancl_human FANCL. The source holds these as a separate data set.
Consider D351H, for which the “effect of a mutation on the interaction” value is “with no effect”.

The variants in the next test derive from B3. Conditions: with fancl_human FANCL. The source holds these as a separate data set.
For the variant R361C, the “effect of a mutation on the interaction” value was “with no effect”.

Variants of B3 are the subject of the next test. Conditions: with fancl_human FANCL. This is another data set of the same source.
For R361H, the “effect of a mutation on the interaction” value was “with no effect”.

A further test covers variants of B4. Conditions: with glis2_human GLIS2, Q9BZE0.
Regarding G386D, the “effect of a mutation on the interaction” value is “with no effect”.

In another test the parent is B4. As to conditions: with glis2_human GLIS2, Q9BZE0. The source holds these as a separate data set.
For the variant D351H, the “effect of a mutation on the interaction” value was “with no effect”.

In a further test the parent is B4. As to conditions: with glis2_human GLIS2, Q9BZE0. This is another data set of the same source.
For R361C, the “effect of a mutation on the interaction” value was “with no effect”.

Another test covers variants of B4. As to conditions: with glis2_human GLIS2, Q9BZE0. This is another data set of the same source.
Take R361H: the “effect of a mutation on the interaction” value is listed as “with no effect”.

A further test covers variants of B5. As to conditions: with mp2k3_human MAP2K3, P46734.
For the variant R361C, the “effect of a mutation on the interaction” value is given as “with no effect”.

A further test covers variants of B5. As to conditions: with mp2k3_human MAP2K3, P46734. The source holds these as a separate data set.
On to R361H, for which the “effect of a mutation on the interaction” value was “with no effect”.

In a further test the parent is B5. Conditions: with mp2k3_human MAP2K3, P46734. The source holds these as a separate data set.
Take D351H: the “effect of a mutation on the interaction” value was “with no effect”.

The variants in a further test derive from B5. Conditions: with mp2k3_human MAP2K3, P46734. This is another data set of the same source.
G386D: the “effect of a mutation on the interaction” value was “with no effect”.

Variants of B6 are the subject of another test. Conditions: with kpci_human PRKCI.
For D351H, the “effect of a mutation on the interaction” value was “with no effect”.

The next test covers variants of B6. As to conditions: with kpci_human PRKCI. This is another data set of the same source.
As to R361H, the “effect of a mutation on the interaction” value is recorded as “with no effect”.

In the next test the parent is B7. As to conditions: with lztr1_human LZTR1, Q8N653.
As for D351H, the “effect of a mutation on the interaction” value is on record as “with no effect”.

The variants in a further test derive from B7. Conditions: with lztr1_human LZTR1, Q8N653. This is another data set of the same source.
With G386D, the “effect of a mutation on the interaction” value is “with no effect”.

In another test the parent is B7. Conditions: with lztr1_human LZTR1, Q8N653. This is another data set of the same source.
For R361C, the “effect of a mutation on the interaction” value was “with no effect”.

Variants of B7 are the subject of a further test. Conditions: with lztr1_human LZTR1, Q8N653. The source holds these as a separate data set.
Turning to R361C, the “effect of a mutation on the interaction” value was “decreasing interaction strength”.
